The text below walks through data of US20070202098A1.

Test [1] concerns the target His-tagged V158 FcγRIIIa (human) (UniProt P08637). Nature of the test: SPR, receptor immobilized, antibody flowed. (SPR reads the build-up and loss of mass on a sensor chip optically.)
Test [2] concerns the target extracellular region of human V158 FcγRIIIa fused with glutathione S-Transferase (GST) (human) (UniProt P08637). Nature of the test: AlphaScreen competition. (In Alpha technology, singlet oxygen from a donor bead excites a nearby acceptor bead.)
Test [3] has as its target FcγRIIIa on human PBMC effector cells (heterozygous V158/F158 or allotype not stated) (human) (UniProt P08637). As to the kind of experiment: cell-based or functional assay.
The target in test [4] is extracellular region of human F158 FcγRIIIa, GST-tagged (human) (UniProt P08637). As to the kind of experiment: AlphaScreen competition.
Sequence of extracellular region of human F158 FcγRIIIa, GST-tagged (human) (P08637 17-208): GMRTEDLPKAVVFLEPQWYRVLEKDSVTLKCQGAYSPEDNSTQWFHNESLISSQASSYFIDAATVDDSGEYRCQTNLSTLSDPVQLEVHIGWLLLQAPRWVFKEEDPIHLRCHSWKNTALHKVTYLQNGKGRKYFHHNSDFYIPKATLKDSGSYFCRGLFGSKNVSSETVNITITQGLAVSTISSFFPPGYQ
For test [5] the target is unchanged. As to the kind of experiment: SPR.
In test [6] the target is His-tagged V158 FcγRIIIa (human) (UniProt P08637). Nature of the test: SPR.
Sequence of His-tagged V158 FcγRIIIa (human) (P08637 17-208 F176V): as the sequence (P08637 17-208) above, with F160V counted along it

Sequence of FcγRIIIa on human PBMC effector cells (heterozygous V158/F158 or allotype not stated) (human) (P08637 17-254): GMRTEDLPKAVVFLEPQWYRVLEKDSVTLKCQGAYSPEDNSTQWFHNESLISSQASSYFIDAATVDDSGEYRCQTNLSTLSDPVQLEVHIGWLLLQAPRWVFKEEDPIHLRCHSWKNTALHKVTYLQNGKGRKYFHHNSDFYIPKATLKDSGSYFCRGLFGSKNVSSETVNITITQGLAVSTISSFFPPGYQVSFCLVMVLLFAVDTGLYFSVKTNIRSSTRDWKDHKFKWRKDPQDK
Sequence of extracellular region of human V158 FcγRIIIa fused with glutathione S-Transferase (GST) (human) (P08637 17-208 F176V): as the sequence (P08637 17-208) above, with F160V counted along it

Take “alemtuzumab Fc variant 22 I332E (antibody)”: the Kd – broadly, the free concentration of one partner at which half of the binding sites on the other are occupied at equilibrium, for simple one-to-one binding – in test [1] was determined as 31 nM.

“trastuzumab Fc variant 219 S239D/I332E/A330I (antibody)” displayed a FcγRIIIa Fold in test [2] of 59.1 fold. “trastuzumab Fc variant 270 S324Y (antibody)”: the FcγRIIIa Fold in test [2] was determined as 0.98 fold.

The substance “trastuzumab Fc variant 251 Y278T (antibody)” displayed a FcγRIIIa Fold in test [2] of 1.87 fold.

The substance “trastuzumab Fc variant 240 K274T (antibody)” returned a FcγRIIIa Fold in test [2] of 1.41 fold. On the same count and under the same terms, as for “trastuzumab Fc variant 239 V273I (antibody)”, the figure is 0.79 fold. Same read-out and setting: for “trastuzumab Fc variant 288 T335D (antibody)” the value was 2.79 fold; for “trastuzumab Fc variant 295 S239D/A330Y/I332E/V240I (antibody)”, 28 fold; for “trastuzumab Fc variant 247 N276E (antibody)”, 0.87 fold.

Turning to “trastuzumab Fc variant 223 P230A/E233D (antibody)”, the FcγRIIIa Fold in test [2] was found to be 0.92 fold. As to “trastuzumab Fc variant 238 E272Y (antibody)”, in test [2], the FcγRIIIa Fold worked out at 8.7 fold.

“trastuzumab Fc variant 254 Y278W (antibody)” came in with a FcγRIIIa Fold in test [2] of 0.41 fold. As to “alemtuzumab Fc variant 35 S298A (antibody)”, the Kd in test [1] came out at 52 nM. On to “trastuzumab Fc variant 256 V302I (antibody)”, for which the FcγRIIIa Fold in test [2] was 1.01 fold. In test [2], “trastuzumab Fc variant 282 E333H (antibody)” registered a FcγRIIIa Fold of 0.75 fold. In test [2], “trastuzumab Fc variant 273 K326T (antibody)” returned a FcγRIIIa Fold of 1.88 fold. Regarding “trastuzumab Fc variant 263 V323I (antibody)”, the FcγRIIIa Fold in test [2] turned out to be 0.83 fold.

As for “alemtuzumab Fc variant 90 S239D/I332E (antibody)”, in test [2], the FcγRIIIa Fold was 56.1 fold. Besides, in test [3], the ADCC EC50, DoHH-2 targets, human PBMCs amounted to 3 ng/mL; the ADCC Fold Improvement Over WT came out at 3.3 fold; the ADCC log(EC50), DoHH-2 targets, human PBMCs is 0.49 log(ng/ml). In the case of “trastuzumab Fc variant 243 K274L (antibody)”, the FcγRIIIa Fold in test [2] was 1.09 fold. In test [1], “alemtuzumab Fc variant 3 V264I (antibody)” returned a dissociation constant (Kd) of 64 nM. Regarding “trastuzumab Fc variant 242 K274R (antibody)”, the FcγRIIIa Fold in test [2] was determined as 1.41 fold. In test [2], “trastuzumab Fc variant 293 S239D/A330Y/I332E/L234I (antibody)” returned a FcγRIIIa Fold of 22.4 fold. In test [2], “trastuzumab Fc variant 266 S324R (antibody)” displayed a FcγRIIIa Fold of 0.71 fold.

The substance “trastuzumab Fc variant 246 N276S (antibody)” came in with a FcγRIIIa Fold in test [2] of 0.41 fold.

In test [2], “trastuzumab Fc variant 294 S239D/A330Y/I332E/L235D (antibody)” showed a FcγRIIIa Fold of 7.04 fold. As to “trastuzumab Fc variant 291 L234I/L235D (antibody)”, in test [2], the FcγRIIIa Fold stood at 0.07 fold. Same read-out and setting: as for “trastuzumab Fc variant 296 S239D/A330Y/I332E/V264T (antibody)”, the figure is 17.7 fold.

On to “trastuzumab Fc variant 255 E283R (antibody)”, for which the FcγRIIIa Fold in test [2] worked out at 0.67 fold. In test [2], “trastuzumab Fc variant 267 S324I (antibody)” came in with a FcγRIIIa Fold of 1.15 fold. On the same count and under the same terms, for “trastuzumab Fc variant 257 E318R (antibody)” the value was 1.06 fold; for “trastuzumab Fc variant 221 P230A (antibody)”, 1.09 fold; for “trastuzumab Fc variant 272 K326I (antibody)”, 1.43 fold.

For the substance “trastuzumab Fc variant 268 S324V (antibody)”, the FcγRIIIa Fold in test [2] was determined as 1.17 fold. Turning to “trastuzumab Fc variant 250 N276Y (antibody)”, the FcγRIIIa Fold in test [2] is 0.56 fold.

With “trastuzumab Fc variant 290 T335Y (antibody)”, the FcγRIIIa Fold in test [2] stood at 1.56 fold.

In test [2], “trastuzumab Fc variant 281 E333T (antibody)” came in with a FcγRIIIa Fold of 0.78 fold.

The substance “trastuzumab Fc variant 245 F275W (antibody)” had a FcγRIIIa Fold in test [2] of 1.11 fold. In test [2], “trastuzumab Fc variant 241 K274E (antibody)” showed a FcγRIIIa Fold of 6.11 fold. Turning to “trastuzumab Fc variant 248 N276R (antibody)”, the FcγRIIIa Fold in test [2] was found to be 0.66 fold. In test [2], “trastuzumab Fc variant 222 E233D (antibody)” registered a FcγRIIIa Fold of 0.85 fold. On the same count and under the same terms, for “trastuzumab Fc variant 224 P230A/E233D/I332E (antibody)” the value was 1.87 fold.

Substance “trastuzumab Fc variant 244 K274Y (antibody)” came in with a FcγRIIIa Fold in test [2] of 1.06 fold. For “alemtuzumab Fc variant 37 S298A/E333A/K334A (antibody)”, the dissociation constant Kd in test [1] is 39 nM. For “trastuzumab Fc variant 298 S239D/A330Y/I332E/K326E (antibody)”, the FcγRIIIa Fold in test [2] amounted to 64.1 fold. Turning to “trastuzumab Fc variant 252 Y278E (antibody)”, in test [2], the FcγRIIIa Fold came to 0.9 fold. Still for that read-out and setting: for “trastuzumab Fc variant 289 T335R (antibody)” the value was 2.58 fold. In the case of “trastuzumab Fc variant 292 V240I/V266I (antibody)”, in test [2], the FcγRIIIa Fold worked out at 1.72 fold. As to “alemtuzumab Fc variant 30 V264I/I332E (antibody)”, in test [4], the Fold (IC50, over WT) is 15.6 fold and the concentration for half-maximal inhibition (IC50) (in general, the concentration that inhibits the measured activity by half) was found to be 1.1 nM. In test [2], the FcγRIIIa Fold was found to be 12.5 fold; the Fold (IC50, over WT) was found to be 12.8 fold; the IC50 was determined as 0.5 nM. Also, the Kd in test [1] turned out to be 17 nM. Further, in test [3], the ADCC EC50, DoHH-2 targets, human PBMCs amounted to 4 ng/mL; the ADCC Fold Improvement Over WT is 2.5 fold; the ADCC log(EC50), DoHH-2 targets, human PBMCs is 0.6 log(ng/ml). In test [5], the Fold (Kd, over WT) is 14 fold and the Kd was determined as 52 nM. For the same substance, the Fold (Kd, over WT) in test [6] was found to be 4 fold.
